Columns and labels:
[1] = molecular target: T1, sortilin on the surface of U-251 and PC-3 cells (human (endogenous in U-251 and PC-3), UniProt Q99523 78-831); test: cell-based or functional assay
T1 sequence (looked up): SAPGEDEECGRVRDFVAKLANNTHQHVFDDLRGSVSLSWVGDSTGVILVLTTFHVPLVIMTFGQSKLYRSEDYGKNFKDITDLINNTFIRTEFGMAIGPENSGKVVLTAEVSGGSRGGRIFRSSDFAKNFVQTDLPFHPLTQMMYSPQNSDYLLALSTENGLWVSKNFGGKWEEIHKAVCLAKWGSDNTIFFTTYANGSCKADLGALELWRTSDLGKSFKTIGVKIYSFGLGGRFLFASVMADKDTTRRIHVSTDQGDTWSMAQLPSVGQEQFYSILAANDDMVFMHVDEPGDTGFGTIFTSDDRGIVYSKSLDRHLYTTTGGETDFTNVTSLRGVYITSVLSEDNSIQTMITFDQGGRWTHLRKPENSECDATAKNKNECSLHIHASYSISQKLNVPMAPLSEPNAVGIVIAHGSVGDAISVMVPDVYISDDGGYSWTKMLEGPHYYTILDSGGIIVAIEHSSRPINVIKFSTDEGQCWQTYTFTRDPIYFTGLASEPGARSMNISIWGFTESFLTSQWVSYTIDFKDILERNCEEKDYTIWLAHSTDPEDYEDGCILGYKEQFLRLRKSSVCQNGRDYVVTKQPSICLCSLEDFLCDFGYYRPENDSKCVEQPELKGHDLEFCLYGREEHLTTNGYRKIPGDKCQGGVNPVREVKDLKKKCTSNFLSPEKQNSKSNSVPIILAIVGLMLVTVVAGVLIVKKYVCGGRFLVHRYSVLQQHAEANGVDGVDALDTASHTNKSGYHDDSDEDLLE

[2] = molecular target: T2, human sortilin (R&D Systems, 3154-ST) (human, UniProt Q99523 78-755); test: SPR; Biacore 8K, affinity determination of second-generation constructs; 30-100 RU of ABD035-containing constructs captured on immobilised HSA (CM5); 1-200 nM human sortilin injected 180 s at 30 µl/min, 25°C, PBST; 60 min dissociation; 1:1 Langmuir fit; apparent constants; n=3 technical replicates; conditions: both partners purified
T2 construct: sortilin, human, recombinant protein bought from R&D Systems (3154-ST); also called hSort; SORT1; source: bought: R&D Systems (3154-ST)
T2 sequence (looked up): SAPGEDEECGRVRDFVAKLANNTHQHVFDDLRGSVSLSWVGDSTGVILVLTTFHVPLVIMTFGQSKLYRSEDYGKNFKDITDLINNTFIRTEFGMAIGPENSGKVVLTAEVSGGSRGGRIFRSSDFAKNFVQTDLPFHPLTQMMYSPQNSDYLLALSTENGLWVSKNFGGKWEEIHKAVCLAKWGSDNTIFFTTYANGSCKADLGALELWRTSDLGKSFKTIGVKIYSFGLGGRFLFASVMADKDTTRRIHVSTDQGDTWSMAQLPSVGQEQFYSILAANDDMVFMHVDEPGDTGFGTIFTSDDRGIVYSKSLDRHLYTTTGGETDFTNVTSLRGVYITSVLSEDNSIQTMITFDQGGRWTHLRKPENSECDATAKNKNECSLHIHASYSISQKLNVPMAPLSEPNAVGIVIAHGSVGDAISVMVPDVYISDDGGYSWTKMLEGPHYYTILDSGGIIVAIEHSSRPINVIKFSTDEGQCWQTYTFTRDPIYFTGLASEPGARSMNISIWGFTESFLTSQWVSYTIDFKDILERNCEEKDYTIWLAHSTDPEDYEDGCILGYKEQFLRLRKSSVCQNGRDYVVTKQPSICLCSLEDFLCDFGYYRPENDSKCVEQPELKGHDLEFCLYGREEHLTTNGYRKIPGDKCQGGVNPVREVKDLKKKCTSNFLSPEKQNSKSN

B1: ABD-PGRNC21* (His6-ABD035-PGRNC21*) (peptide, UniProt P28799 573-593, looked up)
chain: LRREAPRWDAPLRDPGLRQLL
notes: progranulin (PGRN), human, the 21 C-terminal residues L573-L593 (PGRNC21) with A588G (PGRNC21*); numbers count from the start codon; also called the PGRN C-terminus; PGRNC alone; source: E. coli BL21 Star, purified (IMAC, HisPur Cobalt); not shown: ABD035, N-terminal, kept
How did the “PGRN clearance assay: fold increase of extracellular PGRN (ELISA) against untreated U-251 cells after 72 h, at the highest tested concentration (500 nM); no plateau, no EC50” value [1] turn out when B1 was run?
Its value is at most 1.44 fold.

What about the Kd [2] of the same binder?
Its Kd is 15.9 nM.

What about the koff [2] of the same binder?
The koff was 0.00337 s⁻¹.

And the kon [2]?
The kon was 212000 M⁻¹ s⁻¹.
